The results in this text go back to paper PMC3177959.

The target of the assay is M3 muscarinic acetylcholine receptor labeled at its N terminus with ECFP (human) (UniProt P20309). As to the kind of experiment: FRAP of the mobile partner with the other partner immobilised.
UniProt P20309, sequence (P20309 whole entry): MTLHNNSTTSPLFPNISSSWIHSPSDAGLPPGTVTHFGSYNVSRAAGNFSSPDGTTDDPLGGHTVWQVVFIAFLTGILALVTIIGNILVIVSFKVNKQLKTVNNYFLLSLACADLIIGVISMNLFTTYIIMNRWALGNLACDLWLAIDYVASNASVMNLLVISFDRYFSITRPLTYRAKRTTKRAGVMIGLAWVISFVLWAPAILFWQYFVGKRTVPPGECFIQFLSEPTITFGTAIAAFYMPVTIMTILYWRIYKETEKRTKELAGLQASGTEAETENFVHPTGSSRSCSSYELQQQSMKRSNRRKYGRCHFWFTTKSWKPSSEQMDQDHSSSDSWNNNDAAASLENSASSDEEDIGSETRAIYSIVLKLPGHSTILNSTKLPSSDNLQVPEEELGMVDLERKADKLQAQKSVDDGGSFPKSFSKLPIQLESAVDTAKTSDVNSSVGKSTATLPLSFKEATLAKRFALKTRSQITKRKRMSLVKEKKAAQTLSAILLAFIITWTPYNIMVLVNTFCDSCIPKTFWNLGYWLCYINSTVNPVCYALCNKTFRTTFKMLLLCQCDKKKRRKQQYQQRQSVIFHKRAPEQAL

Substance “Gq heterotrimer: venus-labeled Gαq with unlabeled Gβ1 and Gγ2 (from UniProt P21279;P62873;P59768) (complex)” yielded an unrecovered fraction five minutes after photobleaching of 0.23.
